Biological target: HIS-MBP-GASZ-ΔMLS (mouse)
Assay: native gel or EMSA; native PAGE of gel-filtration fraction 5, non-reducing and non-denaturing sample buffer (50 mM Tris pH 7.6, 100 mM NaCl, 0.01% DDM), with or without 2% SDS in the loading buffer, Coomassie blue; monomer to dimer

## HIS-MBP-GASZ-ΔMLS (domain or fragment)
  stoichiometry N: 2

From article PMC10781510
